Reference: CN113416248A (INST MILITARY MEDICINE ACADEMY MILITARY SCIENCES PLA, dated 2021)

Biological target: T1, 金黄色葡萄球菌B型肠毒素(SEB)抗原 (Staphylococcus aureus enterotoxin B) (Staphylococcus aureus, UniProt P01552 28-266)
T1 sequence: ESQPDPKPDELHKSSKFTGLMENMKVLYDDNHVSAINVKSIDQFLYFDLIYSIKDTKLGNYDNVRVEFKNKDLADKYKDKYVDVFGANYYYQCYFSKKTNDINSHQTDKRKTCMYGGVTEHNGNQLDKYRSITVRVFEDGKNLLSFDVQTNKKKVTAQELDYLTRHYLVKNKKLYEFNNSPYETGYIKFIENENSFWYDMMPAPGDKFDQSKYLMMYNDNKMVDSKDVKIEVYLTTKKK
Test: monoclonal phage ELISA on coated SEB antigen, anti-M13-HRP, OD450

B1: 抗肠毒素的纳米抗体 (anti-SEB nanobody, heavy chain variable region SEQ ID NO: 8) (VHH)
VHH: QVQLVESGGGSVQAGASLTLSCVVSVRTDSYAMGWMRQAPGKEREVIAGVSWSGQSTTYADSVKGRFTISRDNAKRAVYLQMGNLKPEDTAVYYCAMGRAPFYIGLTSEPEAYESWGQGTQVTVSL
B1: binds.
